{
  "source": "patent US8815237",
  "test_in_all_cases": "SPR (Biacore T100), steady state; antibody immobilized, soluble receptor injected",
  "key": {"[1]": {"target": "soluble human FcγRIIA^131R (human) (UniProt P12318)"}, "[2]": {"target": "soluble human FcγRIIA^131H (human) (UniProt P12318)"}, "[3]": {"target": "soluble human FcγRIa (R&D Systems) (human) (UniProt P12314)", "sequence (P12314 16-288 limits assumed)": "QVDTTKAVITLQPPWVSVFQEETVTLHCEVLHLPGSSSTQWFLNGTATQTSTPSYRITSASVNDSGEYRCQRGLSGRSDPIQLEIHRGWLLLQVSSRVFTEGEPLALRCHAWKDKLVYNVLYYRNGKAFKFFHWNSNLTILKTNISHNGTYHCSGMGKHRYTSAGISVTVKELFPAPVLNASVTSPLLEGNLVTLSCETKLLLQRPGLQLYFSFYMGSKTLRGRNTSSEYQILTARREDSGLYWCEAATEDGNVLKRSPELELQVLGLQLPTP"}},
  "data": [
    {"substance": "4m5.3 hIgG1 S298G/T299A (antibody)", "values": [
      {"measurement": "Kd", "setting": "[1]", "result": 1.7, "unit": "µM"},
      {"measurement": "fold stronger binding than wild-type Fc", "setting": "[1]", "result": 3, "unit": "fold"},
      {"measurement": "Kd", "setting": "[2]", "result": 7, "unit": "µM"},
      {"measurement": "fold weakening of binding against wild type", "setting": "[3]", "result": 10, "unit": "fold"}
    ]}
  ]
}
